From paper PMC4420033, “Structure and heme-binding properties of HemQ (chlorite dismutase-like protein) from Listeria monocytogenes” (Archives of Biochemistry and Biophysics, 2015)
Values joined by “and” are separate entries in the source; they are usually repeats but may differ in a detail not shown here. Equal entries are not always repeated.

T1: LmCld (chlorite dismutase-like protein, HemQ) (Listeria monocytogenes, UniProt Q8Y5F1)
T1 construct: gene chdC; N-terminal StrepII-tag, TEV-cleavable (cleaved for crystallization); recombinant in E. coli Tuner (DE3); subunit approx. 30 kDa; hexamer approx. 180 kDa in solution, pentamer in crystal
T1 sequence (Q8Y5F1 1-251): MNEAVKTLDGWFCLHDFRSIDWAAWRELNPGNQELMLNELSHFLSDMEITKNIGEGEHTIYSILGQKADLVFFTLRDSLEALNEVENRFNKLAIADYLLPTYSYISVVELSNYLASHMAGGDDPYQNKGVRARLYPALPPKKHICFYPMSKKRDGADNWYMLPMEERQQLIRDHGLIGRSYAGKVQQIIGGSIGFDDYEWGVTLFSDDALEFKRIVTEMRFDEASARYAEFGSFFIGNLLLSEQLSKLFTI

B1: apo-LmCld (heme-free chlorite dismutase-like protein from Listeria monocytogenes) (natural protein, UniProt Q8Y5F1 1-251, looked up)
chain: T1 sequence (Q8Y5F1 1-251)
notes: Chlorite dismutase-like protein (HemQ) of Listeria monocytogenes; subunit of about 30 kDa; Heme-free form; The template was strain L028, the ORF annotation is of strain EGD-e; The tag is TEV-cleavable; also called HemQ; Cld-like protein
B2: apo-LmCld, StrepII-tag cleaved off (as crystallized) (natural protein, Listeria monocytogenes, UniProt Q8Y5F1 1-251, looked up)
chain: T1 sequence (Q8Y5F1 1-251)
notes: Chlorite dismutase-like protein (HemQ) of Listeria monocytogenes; Heme-free; homopentamer in the crystal lattice; also called HemQ; LmCld (4WWS); source: E. coli Tuner (DE3), purified (StrepTrap, TEV cleavage, Superdex 200); not shown: StrepII, N-terminal, cleaved
B3: holo-LmCld (heme b-bound chlorite dismutase-like protein from Listeria monocytogenes) (natural protein, UniProt Q8Y5F1 1-251, looked up)
chain: T1 sequence (Q8Y5F1 1-251)
notes: Chlorite dismutase-like protein (HemQ) of Listeria monocytogenes; subunit of about 30 kDa; heme is partly lost in the high-salt running buffer of the SEC-MALS; also called HemQ; Cld-like protein

What was measured:
[1] = target: T1, LmCld (chlorite dismutase-like protein, HemQ); assay: electronic circular dichroism titration, Soret minimum […] nm, Hill fit; assay type: binding
[2] = target: the molecule itself; assay: SEC-MALS; Superdex 200 10/300 GL, Dulbecco PBS plus 200 mM NaCl, 0.75 mL per min, 50 ug protein injected
[3] = target: the molecule itself; assay: crystal structure; apo-LmCld, 0.1 M Tris pH 8.5, 0.6 M potassium sodium tartrate, 8% glycerol; 2.0 A, space group P 1 21 1

Molecule	stoichiometry N [2]	also measured
C=CC1=C(C)C2=Cc3c(C=C)c(C)c4[n]3[Fe]([Cl])[n]3c(c(C)c(CCC(=O)O)c3=CC3=NC(=C4)C(C)=C3CCC(=O)O)=CC1=N2 [hemin]	–	Kd [1]: 7.2 ± 0.5 µM
B1	6 subunits and 12 subunits	–
B2	–	stoichiometry N [3]: 5 subunits
B3	6 subunits and 12 subunits	–
